Experiment [1] deals with CCR9 (species and isoform not stated) (UniProt P51686). Briefly: cell-based or functional assay.
The target in experiment [2] is human CCR9 (isoform not given) (human), P51686. The experiment in a line: cell-based or functional assay.
The target is the same in experiment [3].
Experiment [4] deals with CCR9 (species and isoform not stated) (UniProt P51686). The experiment in a line: LigandTracer on CCR9-expressing CHO K1 cells, DyLight 650 labelled IgG, bivalent (1:2) fit, ~22 °C.
Experiment [5] has the same target.

Data on three molecules can be found in patent publication US20250084174A1.

Where a chain is given by its changes, count along the chain named.

Sequence of human CCR9 (isoform not given) (human), P51686 (P51686 whole entry, canonical isoform): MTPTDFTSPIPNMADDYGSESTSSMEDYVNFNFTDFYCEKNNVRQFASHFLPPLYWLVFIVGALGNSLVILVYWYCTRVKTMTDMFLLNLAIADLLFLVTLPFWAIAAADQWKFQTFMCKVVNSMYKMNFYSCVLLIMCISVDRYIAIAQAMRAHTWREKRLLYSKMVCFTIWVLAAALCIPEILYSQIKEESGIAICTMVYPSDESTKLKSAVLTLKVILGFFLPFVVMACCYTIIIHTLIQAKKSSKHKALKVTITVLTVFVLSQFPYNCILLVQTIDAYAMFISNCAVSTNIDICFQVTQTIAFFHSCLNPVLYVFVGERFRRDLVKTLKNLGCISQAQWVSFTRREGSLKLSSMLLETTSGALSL

B1: AB243LO0326 (antibody, V domains shown)
VH: QVQLVQSGAEVKKPGASVKVSCKASGYTFTSYWMHWVRQAPGQGLEWIGVIYPGNSDTRYNQKFKGRVTITRDTSASTAYMELSSLRSEDTAVYYCTRDYYSNYVYYYAMDYWGQGTTVTVSS
VL: DIVMTQTPLSLPVTPGEPASISCRSSQSLVHPNRNTYLHWYLQKPGQSPQLLIYKVSNRFSGVPDRFSGSGSGTDFTLKISRVEAEDVGVYYCSQSTHVPWTFGQGTKLEIK
modifications: afucosylated form; in the LigandTracer assay DyLight 650 Maleimide on an engineered cysteine residue in the CH2 region
In turn, B1 came in with a prevention of CCL25 induced CCR9 internalisation (FACS) in experiment [1] of 2 nM. In experiment [2], this molecule showed an EC50, killing of PBMC of 0.004 nM and an EC50, killing of human CD4+CCR9+ PBMC of 0.004 to 0.005 nM. The molecule also returned an IC50 (read off the curve), HTRF IP-One, MOLT 4 cells, 50 nM CCL25 in experiment [3] of 0.6 nM.

B2: humanised AB1020243 afuc (AB1020243-fgl) (antibody, V domains shown)
VH: B1 VH
VL: B1 VL with P32S, R34G
modifications: afucosylated form; in the LigandTracer assay DyLight 650 Maleimide on an engineered cysteine residue in the CH2 region
On to B2, for which the koff in experiment [4] worked out at 4.3e-05 s⁻¹. The molecule further gave a Potency, NK cell activation (NK-92 CD16a NFAT luciferase reporter) in experiment [2] of 0.8 nM. In addition, the EC50, luminescence signal (CPS) against Log M; potency curve as in the NK cell activation reporter assay; the target cell line is not printed on the sheet in experiment [5] amounted to 7.3e-09 M.

B3: AB243LO0331 (antibody, IgG1, V domains shown)
VH: B1 VH
VL: B1 VL with P32S, R34T
modifications: here or on the partner: afucosylated form
B3 came in with an IC50 (read off the curve), HTRF IP-One, MOLT 4 cells, 50 nM CCL25 in experiment [3] of 0.6 nM.
